Test results taken from publication PMC2810336, “Mutational Analysis of Highly Conserved Residues in the Phage PhiC31 Integrase Reveals Key Amino Acids Necessary for the DNA Recombination”.
Positions count from the first letter of the chain named.

Columns and labels:
phiC31 integrase V571A = target: T1, phiC31 integrase V571A (Streptomyces phage phiC31, UniProt Q38194 1-613, V571A); assay: EMSA; 400 nM protein; 50 ng/ul Poly (competitor (so in the source)), 0.05% NP-40, 50 mM KCl, 5 mM MgCl2, 10 mM EDTA, 20 ul, 0.4 ng (16 fmol) probe; 30 min at room temperature (Methods) or 30 C; pH not stated; synapsis 2 h at 30 C; conditions: protein: recombinant; tags: C-terminal His; chain copies: 2; label: biotin, double-strand end-labeled; blunt
T1 sequence: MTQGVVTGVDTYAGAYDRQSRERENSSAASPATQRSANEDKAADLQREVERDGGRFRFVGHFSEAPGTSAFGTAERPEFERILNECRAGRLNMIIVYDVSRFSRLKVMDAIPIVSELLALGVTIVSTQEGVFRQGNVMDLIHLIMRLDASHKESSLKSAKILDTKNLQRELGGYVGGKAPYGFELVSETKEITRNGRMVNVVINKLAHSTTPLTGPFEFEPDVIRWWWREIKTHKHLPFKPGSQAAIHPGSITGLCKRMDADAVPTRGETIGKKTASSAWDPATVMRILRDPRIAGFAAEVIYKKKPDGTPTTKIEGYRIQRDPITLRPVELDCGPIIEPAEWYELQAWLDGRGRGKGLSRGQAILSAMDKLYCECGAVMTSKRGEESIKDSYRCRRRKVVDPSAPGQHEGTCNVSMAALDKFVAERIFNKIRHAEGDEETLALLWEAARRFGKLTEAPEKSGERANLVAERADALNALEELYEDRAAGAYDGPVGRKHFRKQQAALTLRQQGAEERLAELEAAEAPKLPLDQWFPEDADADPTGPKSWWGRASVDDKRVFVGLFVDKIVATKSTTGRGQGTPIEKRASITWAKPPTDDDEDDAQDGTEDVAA

phiC31 integrase V566A = target: T2, phiC31 integrase V566A (Streptomyces phage phiC31, UniProt Q38194 1-613, V566A); assay: as above; conditions: protein: recombinant; tags: C-terminal His; chain copies: 2; label: biotin, double-strand end-labeled; blunt
T2 sequence: T1 sequence with V566A, A571V

phiC31 integrase WT = target: T3, phiC31 integrase WT (Streptomyces phage phiC31, UniProt Q38194 1-613); assay: EMSA; complexes I, II, III; reference; competed by excess cold attB; 50 ng/ul Poly (competitor (so in the source)), 0.05% NP-40, 50 mM KCl, 5 mM MgCl2, 10 mM EDTA, 20 ul, 0.4 ng (16 fmol) probe; 30 min at room temperature (Methods) or 30 C; pH not stated; synapsis 2 h at 30 C; conditions: protein: recombinant; tags: C-terminal His (pET22b); chain copies: 2; label: biotin, double-strand end-labeled; blunt
T3 sequence: T1 sequence with A571V

B1: attB 41 bp (dsDNA)
DNA 1: CGGGTGCCAGGGCGTGCCCTTGGGCTCCCCGGGCGCGTACT
DNA 2: AGTACGCGCCCGGGGAGCCCAAGGGCACGCCCTGGCACCCG
phiC31 integrase V571A
  binding signal: 15.6 ± 1.7 % of WT
phiC31 integrase V566A
  binding signal: 0 % of WT
phiC31 integrase WT
  binding signal: 100 % of WT
